Measured values as given in the nanobody polyreactivity screen of Harvey et al. (2022).

assay: yeast display, Sf9 membrane polyspecificity reagent, FACS + sequencing; frameworks hold sequencing errors
How it was run: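 Galactose induction of a Saccharomyces cerevisiae BJ5465 synthetic nanobody display library ran 36–48 hours. The cells were then stained for 1 hour at 4 °C with 10% biotinylated, detergent-solubilized Sf9 membrane reagent, pulled down on streptavidin microbeads and FACS-sorted into low and high (top ~1%) gates on expression and reagent-binding fluorescence. Labels for polyreactivity follow the gate of origin.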

Question: With “QVQLVESGGGLVQAGGSLRLSCAASGLMLGYYAMGWYRQAPGKERELGATIRRGASTYYADSVKGRLTISRDNAKNTVYLQMNSLKPEDTALYYCAAYGHQFQGDYNYWGPGTQVTVSS” as the sequence, how does the “polyreactivity (PSR sort gate)” value read?
Answer: The value was “low polyreactivity”.

Question: For “QVQLVESGGGLVQAGGSLRLSCAASGLNFRAYAMGWYRQAPGKERELVAAITWNGGSTNYADSVKGRFTISRDNAKNTVYLQMNSLKPEDTAVYYCNKYRISGLSKFYYWGQGTQVTVSS”, which “polyreactivity (PSR sort gate)” value is on record?
Answer: Its value is “high polyreactivity”.

Question: With “QVQLVESGGGLVQAGGSLRLSCAASGLPSKLMHMGWYRQAPGKERELVAAISSSGGRTYYADSVKGRITISRDNAKNTVYLQMNILKPEDTAVYYCAATARYRSYSASYYWGQGTQVTVSS” as the sequence, how does the “polyreactivity (PSR sort gate)” value read?
Answer: Its value is “high polyreactivity”.

Question: For “QVQLVESGGGLVQAGGSLRLSCAASGLSFGIYAIGWYRKAPGKERELVAAISRSGGSTYYADSVKGRFTISRDNAKNTVYLQMNSLKPEDTAVYYCAAPYYVGYDYWGQGTQVTVSS”, which “polyreactivity (PSR sort gate)” value is on record?
Answer: The value was “high polyreactivity”.

Question: For “QVQLVESGGGLVQAGGSLRLSCAASGLSFRRYAMGWYRQAPGKEREFVATISRRGGSTRYADSVKGRFTISRDNAKNTVYLQMKSLKPEDTAVYYCNKVEYASIAKGYDYWGQGTQVTVSS”, which “polyreactivity (PSR sort gate)” value is on record?
Answer: Its value is “high polyreactivity”.

Question: Which “polyreactivity (PSR sort gate)” value does the source give for “QVQLVESGGGLVQAGGSLRLSCAASGLSSLRMLWDGIDRRLGKKGSWLPLITSGGDSTNYADSVKGRFTISRDNAKNTVYLQMNSLKPEDTAVYYCAADLDYPYGYWGQGTQVTVSS” here?
Answer: Its value is “low polyreactivity”.

Question: With “QVQLVESGGGLVQAGGSLRLSCAASGLTCRYNAMGWYRQAPGKERELVAGIRISGGNTRYADAVKGRCTISRDNAKKSVYLQMNSLKPEDTAVYYCSALTGFYNLRPYGYWGQGTQVTVSS” as the sequence, how does the “polyreactivity (PSR sort gate)” value read?
Answer: The value was “high polyreactivity”.

Question: With “QVQLVESGGGLVQAGGSLRLSCAASGLTFAAYAMGWYRQAPGKEREMVAAISRRGGSTYYADSVKGRFTISRDNAKNTVYLQMNRLKPEDTAVYYCARGGSRLTQGWLVTPYDYDYWGQGTQVNVSS” as the sequence, how does the “polyreactivity (PSR sort gate)” value read?
Answer: Its value is “high polyreactivity”.

Question: For “QVQLVESGGGLVQAGGSLRLSCAASGLTFAFYAMGWYRQAPGKERELVAAISGSGGSTNYADSVKGRFTISRDNAKNTVYLQMNSLKPEDTAVYYCAATYTYSWAYGYWGQGTQVTVSS”, which “polyreactivity (PSR sort gate)” value is on record?
Answer: Its value is “high polyreactivity”.

Question: With “QVQLVESGGGLVQAGGSLRLSCAASGLTFAKYAMGWYRQEPGKEREFVAAITYSGGTTYYADSVKGRFTISRDNAKNTVYLQMNSLKPEDTAVYYCNTRSTLGYYWGQGTQVTVSS” as the sequence, how does the “polyreactivity (PSR sort gate)” value read?
Answer: The value was “high polyreactivity”.

Question: For “QVQLVESGGGLVQAGGSLRLSCAASGLTFARYAMGWSRQAPGKERELVAAISSSGGTKYADSVKGRFTISRDNAKNTVYLQMNSLIPEDTAVYYCNADAVVERSSVWYYWSIYEYWGQGTQVTVSS”, which “polyreactivity (PSR sort gate)” value is on record?
Answer: The value was “low polyreactivity”.

Question: Which “polyreactivity (PSR sort gate)” value does the source give for “QVQLVESGGGLVQAGGSLRLSCAASGLTFAVYAMGWYRQAPGKERELVASITRSGGSTYYADSVKGRFTISRDNAKNTVYLQMNSLKPEDTAVYYCAAQTIYSGRYYYYSRYDYWGQGTQVTVSS” here?
Answer: The value was “high polyreactivity”.

Question: For “QVQLVESGGGLVQAGGSLRLSCAASGLTFDHYTMGWYRQATGLERELVAAITKNGGSTYYADSVKGRFTISRDNAKNTVYLQMISLKPEDTAVYYCNVGPRRVDRSRAASSDYDYWGQGTQVTVSS”, which “polyreactivity (PSR sort gate)” value is on record?
Answer: The value was “high polyreactivity”.

Question: With “QVQLVESGGGLVQAGGSLRLSCAASGLTFDVYAMGWYRQAPGKERELVAAISSIGGSTYYADSVKGRFTISRDNAKNTVYLQMNSLKPEDTAVYYCNADYFGGGDYWGQGTQVTVSS” as the sequence, how does the “polyreactivity (PSR sort gate)” value read?
Answer: Its value is “low polyreactivity”.

Question: With “QVQLVESGGGLVQAGGSLRLSCAASGLTFERYAMGSYIQAPGKERELVAAISGSGGSTYYADSVKGRFTISRDNAKNTVYLQMNSLKPEDTAVYYCAAYPTVWYDYWGQGTQVTVSS” as the sequence, how does the “polyreactivity (PSR sort gate)” value read?
Answer: Its value is “high polyreactivity”.

Question: For “QVQLVESGGGLVQAGGSLRLSCAASGLTFERYAMGWYRQAPGKERELVADITWSGGRTYYADSVKGRFTISRDNAKNTVYLQMNSLKPEDTAVYYCAADVYPGYVGSQEYDYWGQGTQVTVSS”, which “polyreactivity (PSR sort gate)” value is on record?
Answer: Its value is “low polyreactivity”.

Question: With “QVQLVESGGGLVQAGGSLRLSCAASGLTFEYNAMGWYRQAPGKERELVAAITSGVNTYYADSVKGRFTISRDNAKNTVYLQMNSLKPEDTAVYYCAKYRWNWRYVSRGDSWGQGTQVTVSS” as the sequence, how does the “polyreactivity (PSR sort gate)” value read?
Answer: The value was “high polyreactivity”.
